Where no end group is shown, it is not given here. The star is where a group is joined. FITC = O=C1OC2(c3ccc(O)cc3Oc3cc(O)ccc32)c2ccc(NC(=S)*)cc21; Ahx = NCCCCCC(=O)O

Assay [1] has as its target T1, Human α-parvin-CHC (residues 242-372) (human, UniProt Q9NVD7 242-372).
T1 construct: α-parvin, human, C-terminal CH domain, residues 242-372; also called second CH domain of α-parvin; source: E. coli BL21, expressed as GST-fusion protein (pGex 6P1), purified as described previously (Lorenz et al., 2008)
T1 sequence (looked up): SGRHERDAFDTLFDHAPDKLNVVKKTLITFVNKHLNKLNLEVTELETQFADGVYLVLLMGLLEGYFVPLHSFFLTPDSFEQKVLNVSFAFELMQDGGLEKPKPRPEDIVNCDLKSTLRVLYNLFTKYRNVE
As to the kind of experiment: fluorescence polarisation + other: differential scanning fluorimetry; the 'qualitative' methods, summed up in one sentence for each peptide: anisotropy competition (unlabelled peptide at 100 and 250 μM against 0.1 μM FITC-Ahx-LD4 with 10 μM FAT or 25 μM α-parvin) and DSF (10 μM protein, peptide at 100 and 250 μM; 20 mM HEPES pH 7.5, 150 mM NaCl, 2 mM EDTA, 1 mM TCEP). The note with it: both partners purified. On the technique in general: Fluorescence polarisation rises when a labelled molecule tumbles more slowly, as on binding a larger partner.

Assay [2] concerns the target T2, FAT domain of human FAK (892-1052) (human, UniProt Q05397 892-1052).
T2 construct: focal adhesion kinase (FAK), human, FAT domain, residues 892-1052; 15N-labelled (M9 minimal medium) in the NMR titrations; also called FAK FAT; focal adhesion targeting domain; source: E. coli BL21, expressed as GST-fusion protein (pGexP2), purified as described previously (Arold et al., 2002)
T2 sequence (looked up): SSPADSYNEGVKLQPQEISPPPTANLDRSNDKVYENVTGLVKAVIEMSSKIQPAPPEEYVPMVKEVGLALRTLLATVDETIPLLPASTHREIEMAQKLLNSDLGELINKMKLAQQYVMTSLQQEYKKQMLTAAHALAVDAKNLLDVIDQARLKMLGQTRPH
The assay is described as above. The note with it: both partners purified.

In assay [3] the target is T3, Human α-parvin-CHC (residues 242–372) (human, UniProt Q9NVD7 242-372).
T3 construct: α-parvin, human, second CH domain (CHC), residues 242-372; Purification and fate of the GST are told only in the Supplementary Material and in the cited work (Lorenz et al., 2008); also called second CH domain of α-parvin; source: E. coli BL21, expressed as GST-fusion protein
T3 sequence (looked up): T1 sequence (looked up)
In words: fluorescence polarisation + MST + ITC + other: differential scanning fluorimetry; synthesized peptides against recombinant LDBDs in vitro; direct anisotropy with labelled candidate peptides, anisotropy competition of unlabelled peptides against fluorescently labelled known LD motifs, ITC, MST and DSF summed up together; 25°C, 20 mM HEPES pH 7.5, 150 mM NaCl, 2 mM EDTA, 1 mM TCEP, unless stated otherwise. The settings on record: both partners purified.

Assay [4] deals with T4, Human α-parvin-CHC (residues 242–372) (human, UniProt Q9NVD7 242-372).
T4 chain: T1 sequence (looked up)
In words: FP.

The target in assay [5] is T5, FAT domain of human FAK (892–1052) (human, UniProt Q05397 892-1052).
T5 construct: focal adhesion kinase (FAK), human, FAT domain, residues 892-1052; 15N-labelled for the NMR titrations; Purification and fate of the GST are told only in the Supplementary Material and in the cited work (Arold et al., 2002); also called FAK FAT; four-helix FAT domain from FAK; source: E. coli BL21, expressed as GST-fusion protein
T5 sequence (looked up): T2 sequence (looked up)
As to the kind of experiment: fluorescence polarisation + MST + ITC + other: differential scanning fluorimetry; synthesized peptides against recombinant LDBDs in vitro; direct anisotropy with labelled candidate peptides, anisotropy competition of unlabelled peptides against fluorescently labelled known LD motifs, ITC, MST and DSF summed up together; 25°C, 20 mM HEPES pH 7.5, 150 mM NaCl, 2 mM EDTA, 1 mM TCEP, unless stated otherwise. The settings on record: both partners purified.

In assay [6] the target is T6, FAT domain of human FAK (892–1052) (human, UniProt Q05397 892-1052).
T6 chain: T2 sequence (looked up)
As to the kind of experiment: MST.

Assay [7] deals with T4, Human α-parvin-CHC (residues 242–372). As to the kind of experiment: MST.
For assay [8], the target named is T2, FAT domain of human FAK (892-1052). In words: fluorescence polarisation + MST; the 'quantitative' methods, summed up in one sentence for each peptide: direct anisotropy (protein serially diluted, FITC-Ahx peptide 0.1 μM; 20 mM HEPES pH 7.5, 150 mM NaCl, 2 mM EDTA, 2 mM DTT, 0.005% Tween-20; room temperature) and MST (protein diluted from 560 μM FAT or 530 μM α-parvin, labelled peptide 0.1 μM, 0.05% Tween-20, 25 °C); ITC in selected cases. The settings on record: both partners purified.

In assay [9] the target is T1, Human α-parvin-CHC (residues 242-372). As to the kind of experiment: fluorescence polarisation + other: differential scanning fluorimetry; the 'qualitative' methods, summed up in one sentence for each peptide: anisotropy competition (unlabelled peptide at 100 and 250 μM against 0.1 μM FITC-Ahx-LD4 with 10 μM FAT or 25 μM α-parvin) and DSF (10 μM protein, peptide at 100 and 250 μM; 20 mM HEPES pH 7.5, 150 mM NaCl, 2 mM EDTA, 1 mM TCEP). The note with it: both partners purified. This is another data set of the same source.

For assay [10], the target named is T2, FAT domain of human FAK (892-1052). Described as above. The settings on record: both partners purified. This is another data set of the same source.
Assay [11] deals with T6, FAT domain of human FAK (892–1052). As to the kind of experiment: FP.
For assay [12] the target is unchanged. In words: ITC. Background: Isothermal titration calorimetry measures the heat released or taken up as one component is titrated into another.
Assay [13] concerns the target T1, Human α-parvin-CHC (residues 242-372). As to the kind of experiment: fluorescence polarisation + MST; the 'quantitative' methods, summed up in one sentence for each peptide: direct anisotropy (protein serially diluted, FITC-Ahx peptide 0.1 μM; 20 mM HEPES pH 7.5, 150 mM NaCl, 2 mM EDTA, 2 mM DTT, 0.005% Tween-20; room temperature) and MST (protein diluted from 560 μM FAT or 530 μM α-parvin, labelled peptide 0.1 μM, 0.05% Tween-20, 25 °C); ITC in selected cases. The note with it: both partners purified.

In assay [14] the target is T2, FAT domain of human FAK (892-1052). Described as above. The note with it: both partners purified. This is another data set of the same source.

B1: CCDC158 LD motif peptide, unlabelled (peptide)
peptide: DPTRDLKQLLQELRSVIN
notes: core motif 903-912; form without label, used in ACA, DSF and NMR; also called CD158; source: synthetic peptide, bought: GenScript
As for B1, the binding result in assay [1] and in assay [2] was “binds” throughout.

B2: LPP (Lipoma-preferred partner) LD motif peptide (peptide)
peptide: AEIDSLTSILADLESS
modifications: also: N-terminal FITC-Ahx only in labelled form
notes: predicted LD motif of human LPP (Lipoma-preferred partner); source: synthetic peptide, bought: GenScript
B2: the binding result in assay [3] is recorded as “binds”.

B3: C16orf71 LD motif peptide (peptide)
peptide: EAWDLDDILQSLQGQ
modifications: also: N-terminal FITC-Ahx only in labelled form
notes: predicted LD motif of human C16orf71; also called CP071; source: synthetic peptide, bought: GenScript
By Kd is commonly meant the free concentration of one partner at which half of the binding sites on the other are occupied at equilibrium, for simple one-to-one binding. With B3, the Kd in assay [4] amounted to 52 µM; in [6], 17.2 µM; in [7] it was 32.3 µM. Also, the binding result in assay [3] and in [5] was “binds” throughout.

B4: CCDC158 LD motif peptide, FITC-Ahx-labelled (peptide)
peptide: {FITC-Ahx}-DPTRDLKQLLQELRSVIN
notes: core motif 903-912; labelled form, used in direct anisotropy and MST; also called CD158; source: synthetic peptide, bought: GenScript
For B4, in [8], the binding result is “binds”.

B5: PPP2R3A LD motif peptide, unlabelled (peptide)
peptide: SQEEIDKLLMDLESFSQ
notes: Serine/threonine-protein phosphatase 2A regulatory subunit B'' subunit alpha, human; core motif 508-517; form without label, used in ACA, DSF and ITC; source: synthetic peptide, bought: GenScript
As for B5, the binding result in [9] and in [10] was “binds” each time.

B6: LPP LD motif peptide, unlabelled (peptide)
peptide: AEIDSLTSILADLESS
notes: Lipoma-preferred partner, human; core motif 123-132; form without label, used in ACA, DSF and NMR; also called lipoma-preferred partner peptide; source: synthetic peptide, bought: GenScript
Regarding B6, in [9], the binding result was “binds”.
As for SQEEIDKLLMDLESFSQ (also: N-terminal FITC-Ahx only in labelled form) [PPP2R3A LD motif peptide], the dissociation constant (Kd) in assay [11] was 41 µM; in assay [4] it was 23.3 µM; in assay [12], 19.7 µM; in assay [6] it was 90 µM.
In assay [7], SELDNLEEILDDLQNSQ (also: N-terminal FITC-Ahx only in labelled form) [NCOA2 (nuclear receptor coactivator 2) LD motif peptide] came in with a Kd of 251 µM.

B7: EPB41L5 LD motif peptide, unlabelled (peptide)
peptide: ATDELDALLASLTENLID
notes: Band 4.1-like protein 5, human; core motif 634-643; form without label, used in ACA, DSF and ITC; also called E41L5; Band 4.1-like protein 5 peptide; source: synthetic peptide, bought: GenScript
Take B7: the binding result in assay [9] and in [10] was “binds” each time.
With SASSATRELDELMASLSD (also: N-terminal FITC-Ahx only in labelled form) [Paxillin LD4 peptide], the dissociation constant Kd in assay [11] worked out at 7.1 µM; in assay [4], 24.5 µM; in assay [12], 19.7 µM; in [6] it was 55.5 µM; in [7] it was 3.1 µM.
GDLDNLDAILGDLTSSD (also: N-terminal FITC-Ahx only in labelled form) [NCOA3 (nuclear receptor coactivator 3) LD motif peptide] showed a Kd in assay [6] of 261 µM.

B8: LPP LD motif peptide, FITC-Ahx-labelled (peptide)
peptide: {FITC-Ahx}-AEIDSLTSILADLESS
notes: Lipoma-preferred partner, human; core motif 123-132; labelled form, used in direct anisotropy and MST; source: synthetic peptide, bought: GenScript
As for B8, the binding result in assay [13] and in assay [14] was “binds” throughout.

B9: RALGAPA1 LD motif peptide, unlabelled (peptide)
peptide: EDVLDELLQYLGVT
notes: core motif 1680-1689; form without label, used in ACA and DSF; also called RGPA1; source: synthetic peptide, bought: GenScript
Consider B9, for which the binding result in [9] and in [10] was “binds” in each case.
DPTRDLKQLLQELRSVIN (also: N-terminal FITC-Ahx only in labelled form) [CCDC158 (Coiled-coil domain-containing protein 158) LD motif peptide]: the dissociation constant (Kd) in [11] amounted to 41.6 µM.
Turning to DAALDDLIDTLGGP (also: N-terminal FITC-Ahx only in labelled form) [CAST LD motif peptide], the dissociation constant Kd was determined as 178 µM in assay [6] and 273 µM in [7].

B10: EPB41L5 LD motif peptide, FITC-Ahx-labelled (peptide)
peptide: {FITC-Ahx}-ATDELDALLASLTENLID
notes: Band 4.1-like protein 5, human; core motif 634-643; labelled form, used in direct anisotropy and MST; also called E41L5; source: synthetic peptide, bought: GenScript
In the case of B10, the binding result in assay [13] and in [14] was “binds” each time.
For SDWEVDDLLCSLLSPPA (also: N-terminal FITC-Ahx only in labelled form) [CREB3 LD motif peptide], the figures for the Kd in assay [4] and in [7] were 101 µM and 110 µM, respectively.
In the case of AEIDSLTSILADLESS (also: also used as N-terminal FITC-Ahx-labelled form), the dissociation constant (Kd) in assay [11] amounted to 97.4 µM; in assay [7], 169 µM.

B11: PPP2R3A LD motif peptide, FITC-Ahx-labelled (peptide)
peptide: {FITC-Ahx}-SQEEIDKLLMDLESFSQ
notes: Serine/threonine-protein phosphatase 2A regulatory subunit B'' subunit alpha, human; core motif 508-517; labelled form, used in direct anisotropy and MST; source: synthetic peptide, bought: GenScript
As for B11, the binding result in assay [13] and in [14] was “binds” throughout.

The values are drawn from article PMC7703752, “Proteome-level assessment of origin, prevalence and function of leucine-aspartic acid (LD) motifs” (Bioinformatics, 2019).
